The record followed here is the supplement of paper PMC10567573.

± gives the standard deviation.

This data set in a line: protein stability index of a GFP-peptide fusion (GPS, HEK-293T) (PSI 1-6); higher = more stable. The settings on record: c terminus: a fixed tail appended.
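Further: 24-mer peptide tiles fused after GFP, lentivirally expressed, FACS-sorted into six equal bins by GFP/DsRed ratio, decoded by Illumina sequencing, PSI is the read-weighted mean bin number.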

The sequence AKPGSTEKGLPLRKTHVLLGRSHD [MFSD9] showed a protein stability index (treatment: DMSO) of 3.79 ± 0.23 and a protein stability index (treatment: MLN4924 1 uM, 8 h) of 3.86 ± 0.17.

Take EGGEVRFNGKGKKIRKPRTIYCSL [DLX1]: the protein stability index runs as follows: (treatment: DMSO) 2.92 ± 0.1; (treatment: MLN4924 1 uM, 8 h) 3.39 ± 0.26.

For PGRGVYLLKFDNSYSLWRSKSVYY [ACBD3], the protein stability index turned out to be 2.78 ± 0.52 (treatment: DMSO) and 2.69 ± 0.76 (treatment: MLN4924 1 uM, 8 h).

Regarding KDVMEKREDSKEAEKSGEATDGAR [CHGA], the protein stability index reads like this: (treatment: DMSO) 5.79 ± 0.11; (treatment: MLN4924 1 uM, 8 h) 5.68 ± 0.37.

The sequence PDSFYELKSQPLPLRSSLPISLQA [TFE3] registered a protein stability index (treatment: DMSO) of 3.14 ± 0.15 and a protein stability index (treatment: MLN4924 1 uM, 8 h) of 3.26 ± 0.29.

On to RVWLKRDSGQYWPSVYHAMPSPCS [WDFY2], for which the protein stability index turned out to be 2.26 ± 0.27 (treatment: DMSO) and 2.33 ± 0.46 (treatment: MLN4924 1 uM, 8 h).

In the case of GPGIPPLMPGMPPGMPPPVPRPGI [ZNF207], the protein stability index is, setting by setting: (treatment: DMSO) 4.29 ± 0.23; (treatment: MLN4924 1 uM, 8 h) 4.35 ± 0.33.

With IPAVLTVSMLGYPFILPDMVGGNA [MYORG], the protein stability index by setting is: (treatment: DMSO) 2.87 ± 0.51; (treatment: MLN4924 1 uM, 8 h) 2.63 ± 0.38.

As to QVQCHSYTGYCWCVTPNGRPISGT [SMOC2], the protein stability index is 2.08 ± 0.26 (treatment: DMSO) and 2.37 ± 0.38 (treatment: MLN4924 1 uM, 8 h).

For the sequence EPAPGSALSPAGVCGGAQRPGHLP [CDC25B], the protein stability index runs as follows: (treatment: DMSO) 4.6 ± 0.15; (treatment: MLN4924 1 uM, 8 h) 4.49 ± 0.21.

For SAEELRKARSNSTLSKSEYMVIEE [KCNA3], the protein stability index was determined as 4.87 ± 0.17 (treatment: DMSO) and 4.93 ± 0.16 (treatment: MLN4924 1 uM, 8 h).

For the sequence SIEVGGSVNFDGETIEGAPPLWAA [FEM1C], the protein stability index amounted to 3.92 ± 0.28 (treatment: DMSO) and 4.12 ± 0.34 (treatment: MLN4924 1 uM, 8 h).

LYRTLFSVINNGHNQKVHMHMVDL [PDS5B] showed a protein stability index (treatment: DMSO) of 2.73 ± 0.56 and a protein stability index (treatment: MLN4924 1 uM, 8 h) of 2.77 ± 0.77.

On to KLNCDPSRIYKPQTRLKRKQPVRK [DFFB], for which the protein stability index was determined as 3.36 ± 0.56 (treatment: DMSO) and 3.71 ± 0.63 (treatment: MLN4924 1 uM, 8 h).

As to PGPQDPEESASRQRFGEALQDQEK [ELOA2], the protein stability index was determined as 5.53 ± 0.29 (treatment: DMSO) and 5.68 ± 0.16 (treatment: MLN4924 1 uM, 8 h).

In the case of QDVVQAADLLLLTDLKTLCCEFLE [GAN], the protein stability index by setting is: (treatment: DMSO) 2.55 ± 0.13; (treatment: MLN4924 1 uM, 8 h) 2.6 ± 0.27.

Turning to ELLWKLQTGDPTSPIKLSPTSPVY [MTUS2], the protein stability index came to 2.3 ± 0.32 (treatment: DMSO) and 2.36 ± 0.16 (treatment: MLN4924 1 uM, 8 h).

LSELPPLEDMGQPPAEEAEQPGAL [FKBP8]: the protein stability index amounted to 5.59 ± 0.18 (treatment: DMSO) and 5.72 ± 0.24 (treatment: MLN4924 1 uM, 8 h).

For the sequence QRPRFITSGGSNIIYVASNHFVWR [VPS39], the protein stability index by setting is: (treatment: DMSO) 2.12 ± 0.23; (treatment: MLN4924 1 uM, 8 h) 2.49 ± 0.25.

Take RPFDCPVCNKKFKMKHHLTEHMKT [ZBTB22]: the protein stability index turned out to be 2.77 ± 0.23 (treatment: DMSO) and 3.47 ± 0.53 (treatment: MLN4924 1 uM, 8 h).

Turning to DMLREMFSDSRSNNDDDEDEDDED [TAF7L], the protein stability index is, setting by setting: (treatment: DMSO) 5.36 ± 0.36; (treatment: MLN4924 1 uM, 8 h) 5.63 ± 0.17.

With TREKAKFSDGEKCRREAFRRLGNG [PHTF1], the protein stability index stood at 3.65 ± 0.17 (treatment: DMSO) and 3.62 ± 0.39 (treatment: MLN4924 1 uM, 8 h).

ILTTSNITEKIDVAFVDRADIKQY [TRIP13]: the protein stability index (treatment: DMSO) amounted to 2.88 ± 0.2 and the protein stability index (treatment: MLN4924 1 uM, 8 h) was determined as 3.02 ± 0.12.

As for SKCLVDDGTGRMPTLKKCEDVARP [GALNT9], the protein stability index runs as follows: (treatment: DMSO) 4.57 ± 0.16; (treatment: MLN4924 1 uM, 8 h) 4.54 ± 0.21.

In the case of ERLKANDNLKFSQEYESIDPGQQF [PTPRD], the protein stability index reads like this: (treatment: DMSO) 4.21 ± 0.12; (treatment: MLN4924 1 uM, 8 h) 4.22 ± 0.16.

In turn, VQVLTMGNDTSPSEGTNLNAPNSL [HNF4A] returned a protein stability index (treatment: DMSO) of 3.97 ± 0.17 and a protein stability index (treatment: MLN4924 1 uM, 8 h) of 4.02 ± 0.18.

With GEKPFECNECGKAFRWGAHLVQHQ [ZNF232], the protein stability index by setting is: (treatment: DMSO) 2.58 ± 0.52; (treatment: MLN4924 1 uM, 8 h) 2.62 ± 0.82.

As for TLEEIQKHNHSKSTWLILHHKVYD [CYB5A], the protein stability index is 2.37 ± 0.19 (treatment: DMSO) and 2.58 ± 0.24 (treatment: MLN4924 1 uM, 8 h).

Turning to TNMARIREIMEKFGKQPVSLPARR [CPXM2], the protein stability index worked out at 2.72 ± 0.1 (treatment: DMSO) and 3.06 ± 0.31 (treatment: MLN4924 1 uM, 8 h).

On to AAYFLLSTNDKTVKLWKVSERDKR [PPP2R2B], for which the protein stability index turned out to be 2.51 ± 0.51 (treatment: DMSO) and 2.49 ± 0.26 (treatment: MLN4924 1 uM, 8 h).

As for RKFYVHIKPAPARAPACSPEAAAA [FCHO1], the protein stability index by setting is: (treatment: DMSO) 2.66 ± 0.3; (treatment: MLN4924 1 uM, 8 h) 2.82 ± 0.35.

In the case of LCPGDLIQAINGESTELMTHLEAQ [PDLIM4], the protein stability index runs as follows: (treatment: DMSO) 4.51 ± 0.26; (treatment: MLN4924 1 uM, 8 h) 4.54 ± 0.094.

The sequence MPPVSYDVQLLHSWNNNDRSLNVF [SPSB1] registered a protein stability index (treatment: DMSO) of 2.46 ± 0.15 and a protein stability index (treatment: MLN4924 1 uM, 8 h) of 2.26 ± 0.27.

Regarding DALQRYGTSHGAPPARGPRMSYGG [RBMY1A1], the protein stability index is, setting by setting: (treatment: DMSO) 3.82 ± 0.23; (treatment: MLN4924 1 uM, 8 h) 3.82 ± 0.21.

Take ETPGCATLLPASLFVNSHPGIDRP [DCAF4]: the protein stability index reads like this: (treatment: DMSO) 3.61 ± 0.3; (treatment: MLN4924 1 uM, 8 h) 3.75 ± 0.1.

In the case of MMRREDEEEEGTMMKAKGDLEMKE [ZBED2], the protein stability index reads like this: (treatment: DMSO) 5.56 ± 0.25; (treatment: MLN4924 1 uM, 8 h) 5.64 ± 0.29.
